The test system of one series is E. coli (ATCC #10536). In kind it is cell-based. To be noted: colony forming unit assay, phosphate buffer, 37°C; by extrapolation of concentration curves. As to the method:
(§1) Antimicrobial Assays. The antimicrobial activities were tested using a colony forming unit assay. E. coli (ATCC #10536) was grown in LB medium at 37° C. to an OD600 of 0.5. The cells were washed 3 times in phosphate buffer (pH 7.2) and resuspended in 1 ml of the same buffer. The cells were then diluted 1:100 using two 10 fold serial dilutions. Following dilutions, 50 μl of cells were incubated with 100 μl of sample protein and 350 μl of phosphate buffer at 37° C. In place of sample protein, 100 μl of 10 mM phosphate buffered saline (pH 7.4) was used as the control sample. Following incubation, the cells were diluted 1:10 before plating 100 μl-200 μl in quadruplicates. The plates were incubated overnight at 37° C. and colony forming units were counted. The percentage of cell death was expressed using the following equation, [1-(cells surviving peptide)/(average colonies counted from PBS control)]×100%. The LC50 is defined as the lethal concentration of peptide required to kill 50 percent of the present bacteria and was determined for each Lacritin variant by extrapolation of concentration curves.
Lethal concentrations (μg/ml) of lacritin constructs required to kill 50 percent of E. coli in the antimicrobial assay. Lacritin is full length mature lacritin without signal peptide. N-XX denotes the number of amino acids removed from the N-terminal of mature lacritin and C-XX denotes the number of amino acids removed from the C-terminal of mature lacritin.

Another series has as its system E. coli. As to the kind of experiment: Antimicrobial activity assay, colony forming units after incubation with E. coli (Example 2, FIGS. 4 and 5). The series is classed as cell-based. The settings on record: for % of the bacteria killed: four hours incubation; for CFU as % of the control / average colony forming units: four hours incubation at 37°C. As to the method: Purified recombinant lacritin variant proteins were assayed for antimicrobial activity by standard methods that involves an incubation period with actively growing bacteria and the protein of interest followed by plating on agar plates supplemented with growth media. The agar plates are incubated overnight and individual colonies are counted and expressed as Colony Forming Units (CFUs). The number of CFUs can be compared to the same bacteria incubated without protein.
E. coli at exponential growth (OD600=0.5) were washed twice in Phosphate Buffer (PB) diluted to a concentration of 1×10^6 cells/ml in PB and incubated with PB (no protein) or test proteins at 37° C. Samples were diluted and plated in triplicate on LB plates after four hours of incubation. Plates were grown at 37° C. overnight and counted. Colony counts were averaged and plotted as CFU/ml×10^3. The incubation volume was 0.5 ml at 25 mM NaCl.
C-25 was tested at a concentration of 53 μg/ml and N-71 was tested at various concentrations in μg/ml as shown in parentheses. pLAC is full length recombinant mature lacritin, and was tested at a concentration of 46 μg/ml. Bacteria incubated with buffer alone (the control) produced an average of 77×10^3 CFU/ml. Incubation with the lacritin variant C-25 produced an average of 79×10^3 or 103% of the control. […] The full-length recombinant lacritin protein (PLAC) produced an average of 38×10^3 CFU/ml or 49% of the control. The variant protein N-71 produced a concentration dependent antimicrobial activity that was less than 1% of the control at a concentration of 28 μg/ml.
The variant lacritin proteins were tested at the concentrations shown in parentheses in μg/ml. Bacteria incubated with buffer alone (the PB control) produced an average of 161×10^3 CFU/ml. Incubation with the lacritin variant N-24 produced an average of 108×10^3 or […] of the control. […] The variant protein N-35 produced an average of 25×10^3 CFU/ml or 16% of the control and the variant N-45 produced an average of 42×10^3 CFU/ml or 26% of the control. These variants are active in antimicrobial activity killing 84% and 74% respectively of the bacteria under the conditions tested. The variant N-55 produced an average of 2×10^3 CPU/ml or 0.01% of the control, the variant N-65 produced an average of 6×10^3 CFU/ml or 0.04% of the control, and the variant N-71 produced an average of 1×10^3 CFU/ml or 0.01% of the control.

A further series deals with Pseudomonas aeruginosa. The experiment in a line: Colony forming unit antimicrobial assay against pathogenic bacteria (Table 3). The settings on record: 10 mM phosphate buffer, 3 hours. The series is classed as cell-based. The method, then: as §1
(§2) Purified lacritin variant proteins at the concentrations shown were incubated with selected pathogenic bacteria in 10 mM phosphate buffer for 3 hours as described in the antimicrobial assay. The total number of colonies were counted and the percent cell death determined using [1-(colonies surviving peptide incubation)/(colony count from PBS control)]×100. N-XX denotes the number of amino acids removed from the N-terminal of mature lacritin.

The test system of series [1] is Staphylococcus epidermidis. The series is described as above. To be noted: 37.6 μg/ml; 10 mM phosphate buffer, 3 hours. The series is classed as cell-based. The method, then:
as §1, §2

The subject of another series is E. coli ML-35. As to the kind of experiment: Inner membrane permeabilization, ONPG conversion by cytoplasmic β-galactosidase (FIG. 11). In kind it is cell-based. The settings on record: 30 μg/ml; room temperature, 18 hours. As to the method:
Inner Membrane Permeabilization. To examine the affect of Lacritin constructs on the inner membrane of gram negative bacteria, an enzymatic assay was conducted using a strain of permease-deficient E. coli, designated E. coli ML-35 (ATCC #43827) which also constitutively produces cytoplasmic βeta-galactosidase. E. coli ML-35 were grown in LB medium for 20 hours at 37° C. as a saturated overnight and then diluted with LB to an absorbance OD600 of 0.5. The cells were washed 3 times in 10 mM sodium phosphate buffer-10 mM NaCl (pH 7.2) and resuspended in 1 ml of the same buffer. The cells were then diluted 1:100 in 10 mM sodium phosphate buffer using two serial 10-fold dilutions. 70 μl of phosphate buffer, 30 μl of 30 mM βeta-galactosidase substrate ONPG (o-nitrophenyl-β-D-galactopyranoside) in 20 mM sodium phosphate buffer, 100 μl of cells in 10 mM sodium phosphate buffer and 50 μl of peptide sample were added to microtiter plate wells in duplicate. The production of ONP (o-nitrophenyl) from ONPG was measured over time using a spectrophotometer set at a wavelength of 415 nm.
Mature Lacritin (pLac) and various constructs of Lacritin were incubated with permease-deficient E. coli ML-35 at room temperature for 18 hours. The conversion of ONPG (o-nitrophenyl-β-D-galactopyranoside) to ONP (o-nitrophenyl) by cytoplasmic β-galactosidase was measured by a spectrophotometer at 415 nm. […]

The subject of series [2] is human salivary gland cells. To be noted: recombinant lacritin produced in bacteria; cultured human salivary gland cells; cited from earlier work.
The conditions of series [3]: topical application to the eyes of rabbits; cited from earlier work.
Another series deals with Staphylococcus aureus. As to the kind of experiment: Colony forming unit antimicrobial assay against pathogenic bacteria (Table 3). In kind it is cell-based. The settings on record: 26.3 μg/ml; 10 mM phosphate buffer, 3 hours. As to the method: as §1, §2
Setting [4] is: FIG. 5, concentrations only shown in the figure.
[5] abbreviates: FIG. 5, concentrations only shown in the figure, PB control 161×10^3 CFU/ml.

Where no end group is shown, it is not given here.

As to “MSILLTEQALAKAGKGMHGGVPGGKQFIENGSEFAQKLLKKFSLLKPWA [Construct N-71]”, the “LC50 (lethal concentration required to kill 50 percent of E. coli)” value with E. coli (ATCC #10536) is 8.0 µg/mL.
With “N-80: mature lacritin with 80 amino acids removed from the N-terminal (AKAGKGMHGGVPGGKQFIENGSEFAQKLLKKFSLLKPWA; UniProt Q9GZZ8 100-138, looked up, fragment) [Construct N-80]”, the “LC50 (lethal concentration required to kill 50 percent of E. coli)” value in the series on E. coli (ATCC #10536) is given as “Not Active”.
As to “MKSIVEKSILLTEQALAKAGKGMHGGVPGGKQFIENGSEFAQKLLKKFSLLKPWA [Construct N-65]”, the “LC50 (lethal concentration required to kill 50 percent of E. coli)” value with E. coli (ATCC #10536) was 5.5 µg/mL.
Take “N-72: mature lacritin with 72 amino acids removed from the N-terminal (ILLTEQALAKAGKGMHGGVPGGKQFIENGSEFAQKLLKKFSLLKPWA; UniProt Q9GZZ8 92-138, looked up, fragment) [Construct N-72]”: the “LC50 (lethal concentration required to kill 50 percent of E. coli)” value in the series on E. coli (ATCC #10536) was 7.5 µg/mL.
On to “N-73: mature lacritin with 73 amino acids removed from the N-terminal (LLTEQALAKAGKGMHGGVPGGKQFIENGSEFAQKLLKKFSLLKPWA; UniProt Q9GZZ8 93-138, looked up, fragment) [Construct N-73]”, for which the “LC50 (lethal concentration required to kill 50 percent of E. coli)” value in the series with E. coli (ATCC #10536) is 8.0 µg/mL.

B1: N-35: mature lacritin with 35 amino acids removed from the N-terminal (protein, listed as Homo sapiens)
chain: METTTTAQETSAAAVQGTAKVTSSRQELNPLKSIVEKSILLTEQALAKAGKGMHGGVPGGKQFIENGSEFAQKLLKKFSLLKPWA
Take B1: in the series with E. coli (setting [4]), the “% of the bacteria killed” value was determined as 84%. Further, in the series with E. coli (setting [5]), the “CFU as % of the control” value is on record as 16% and the “average colony forming units” value is 25×10^3 CFU/ml. Besides, in the series on E. coli (ATCC #10536), the “LC50 (lethal concentration required to kill 50 percent of E. coli)” value is 1.5 µg/mL. Further, the “Cell Death %” value with Pseudomonas aeruginosa (36.8 μg/ml) is reported as 95%. In addition, the “Cell Death %” value in series [1] came to 69%.

B2: Lacritin: full length recombinant mature human lacritin without signal peptide, 119 amino acids, SEQ ID NO:27 (protein, listed as Homo sapiens)
chain: EDASSDSTGADPAQEAGTSKPNEEISGPAEPASPPETTTTAQETSAAAVQGTAKVTSSRQELNPLKSIVEKSILLTEQALAKAGKGMHGGVPGGKQFIENGSEFAQKLLKKFSLLKPWA
For the molecule B2, in the series with E. coli (FIG. 4, 46 μg/ml, 25 mM NaCl, buffer control 77×10^3 CFU/ml), the “average colony forming units” value is 38×10^3 CFU/ml. For the same molecule, the “CFU as % of the control” value with E. coli (FIG. 4, 46 μg/ml, buffer control 77×10^3 CFU/ml) came out at 49%. In the series on E. coli (ATCC #10536), the “LC50 (lethal concentration required to kill 50 percent of E. coli)” value is 11.0 µg/mL. For the same molecule, the “inner membrane permeabilization (ONPG to ONP conversion, 415 nm)” value in the series on E. coli ML-35 is “damage the cell membrane”. Besides, the cell growth entry in series [2] is given as “promotes new cell growth”. Besides, in series [3], the tear production entry was “increases tear production”.

B3: N-45: mature lacritin with 45 amino acids removed from the N-terminal (protein, listed as Homo sapiens)
chain: MAAAVQGTAKVTSSRQELNPLKSIVEKSILLTEQALAKAGKGMHGGVPGGKQFIENGSEFAQKLLKKFSLLKPWA
With B3, in the series with E. coli (setting [4]), the “% of the bacteria killed” value is listed as 74%. Besides, in the series with E. coli (setting [5]), the “CFU as % of the control” value is given as 26%. Further, the “average colony forming units” value in the series with E. coli (setting [5]) is listed as 42×10^3 CFU/ml. In addition, in the series on E. coli (ATCC #10536), the “LC50 (lethal concentration required to kill 50 percent of E. coli)” value is 1.0 µg/mL. The “Cell Death %” value is on record as 99% in the series with Pseudomonas aeruginosa (23.0 μg/ml) and 58% with Staphylococcus aureus.

These data come from patent publication US20090312252A1, “Antimicrobial Activity in Variants of Lacritin” (priority 2006, published 2009).
